Experimental data as given in paper PMC3326539 (The Journal of biological chemistry, 2005).

Assays:
crystal structure = target: the molecule itself; experiment: crystal structure
[1] = target: T1, ArnA C-terminal decarboxylase domain (T316M to S660) (E. coli, UniProt P77398 316-660, T316M); experiment: SEC
T1 sequence (looked up): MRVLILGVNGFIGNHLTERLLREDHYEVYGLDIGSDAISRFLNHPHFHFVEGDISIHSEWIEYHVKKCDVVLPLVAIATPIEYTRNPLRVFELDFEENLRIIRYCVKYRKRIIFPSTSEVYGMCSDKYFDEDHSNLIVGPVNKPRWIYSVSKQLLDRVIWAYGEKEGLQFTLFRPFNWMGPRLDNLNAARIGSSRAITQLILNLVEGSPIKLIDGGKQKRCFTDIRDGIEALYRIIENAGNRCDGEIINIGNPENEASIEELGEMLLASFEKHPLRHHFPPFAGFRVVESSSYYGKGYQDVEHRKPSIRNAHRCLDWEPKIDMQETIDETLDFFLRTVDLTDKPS

B1: ArnA N-terminal formyltransferase domain (residues M1 to N305) (domain or fragment, E. coli, UniProt P77398 1-305, looked up)
chain: MKTVVFAYHDMGCLGIEALLAAGYEISAIFTHTDNPGEKAFYGSVARLAAERGIPVYAPDNVNHPLWVERIAQLSPDVIFSFYYRHLIYDEILQLAPAGAFNLHGSLLPKYRGRAPLNWVLVNGETETGVTLHRMVKRADAGAIVAQLRIAIAPDDIAITLHHKLCHAARQLLEQTLPAIKHGNILEIAQRENEATCFGRRTPDDSFLEWHKPASVLHNMVRAVADPWPGAFSYVGNQKFTVWSSRVHPHASKAQPGSVISVAPLLIACGDGALEIVTGQAGDGITMQGSQLAQTLGLVQGSRLN
- binding result (crystal structure): binds
- Kd [1]: > 5 mM
